Measurements: patent US4285932A, “Enzyme derivatives for use in the treatment of venous thrombosis” (Beecham Group Limited, priority 1978, dated 1981)

Legend:
[1] = test system: streptokinase-human plasminogen activator complex; assay: Residual enzyme activity of acylated streptokinase-human plasminogen activator complex; format: biochemical; settings: freeze-dried powder
Protocol: The time for which the reaction is allowed to proceed depends upon the blocking reagent employed, the temperature at which the reaction is carried out and the enzyme selected for blocking. The optimum time period for any particular circumstances may be selected by following the decrease in enzymic activity by incubating aliquots with a chromogenic or fluorogenic substrate.

[2] = test system: radio-labelled clot in the inferior vena cava; assay: In vivo fibrinolytic enzyme test: radio-labelled clot in the inferior vena cava of the rabbit; set-up: species or system New Zealand white rabbit; settings: systemic infusion, blood radioactivity at least twice background within six hours without death
Excerpt: The agent under test is introduced into the bloodstream at a point where it must pass through the heart to ensure that the agent will be thoroughly mixed with venous blood. Non-specific lytic enzymes attack blood proteins and cause death before any lysis of the clot is observed. Enzymes which have a degree of specificity for fibrin lyse the clot at a dose lower than the lethal dose.
A New Zealand white rabbit (2.5-3.5 kg) is anaesthetised and three cannulas are inserted into the anterior facial vein (referred to as cannula 1 in this description), the left carotid artery (referred to as cannula 2) and the left external iliac vein (referred to as cannula 3). […] The quantity of 50 μl is determined arbitrarily, and represents an amount between the minimum quantity which can be measured accurately and the maximum quantity which can be injected without excessive disturbance of physiological conditions within the isolated vein portion. […] The first swab is transferred to a counting vial, and the level of γ -radiation is measured. […]
Constriction is required in order to prevent dislodgement of the clot. […] A second blood sample (P10) is withdrawn into citrate buffer as above and counted as previously described ten minutes after Po This count is made to check that no additional radio-activity has been washed into the bloodstream, thereby giving an indication of the stability of the clot. […]

Row | Molecule | remaining share of the original enzyme activity [1] | dose giving a positive result in the in vivo fibrinolytic test [2]
1 | p-Anisoyl Streptokinase-Human Plasminogen Activator Complex [Example 26] | less than 5% | –
2 | human plasmin: free proteolytic enzyme, in vivo fibrinolytic enzyme (protein, UniProt P00747 20-580; P00747 581-810, looked up, Plasmin) Plasmin heavy chain A: EPLDDYVNTQGASLFSVTKKQLGAGSIEECAAKCEEDEEFTCRAFQYHSKEQQCVIMAENRKSSIIIRMRDVVLFEKKVYLSECKTGNGKNYRGTMSKTKNGITCQKWSSTSPHRPRFSPATHPSEGLEENYCRNPDNDPQGPWCYTTDPEKRYDYCDILECEEECMHCSGENYDGKISKTMSGLECQAWDSQSPHAHGYIPSKFPNKNLKKNYCRNPDRELRPWCFTTDPNKRWELCDIPRCTTPPPSSGPTYQCLKGTGENYRGNVAVTVSGHTCQHWSAQTPHTHNRTPENFPCKNLDENYCRNPDGKRAPWCHTTNSQVRWEYCKIPSCDSSPVSTEQLAPTAPPELTPVVQDCYHGDGQSYRGTSSTTTTGKKCQSWSSMTPHRHQKTPENYPNAGLTMNYCRNPDADKGPWCFTTDPSVRWEYCNLKKCSGTEASVVAPPPVVLLPDVETPSEEDCMFGNGKGYRGKRATTVTGTPCQDWAAQEPHRHSIFTPETNPRAGLEKNYCRNPDGDVGGPWCYTTNPRKLYDYCDVPQCAAPSFDCGKPQVEPKKCPGR Plasmin light chain B: VVGGCVAHPHSWPWQVSLRTRFGMHFCGGTLISPEWVLTAAHCLEKSPRPSSYKVILGAHQEVNLEPHVQEIEVSRLFLEPTRKDIALLKLSSPAVITDKVIPACLPSPNYVVADRTECFITGWGETQGTFGAGLLKEAQLPVIENKVCNRYEFLNGRVQSTELCAGHLAGGTDSCQGDSGGPLVCFEKDKYILQGVTSWGLGCARPNKPGVYVRVSRFVTWIEGVMRNN | – | 1×10^-7 to 5×10^-6 mol of active catalytic sites per kg of test animal
